Data taken from US9879306B2, “Luciferase biosensors for cAMP” (PROMEGA CORPORATION, priority 2008, dated 2018).

Tests used:
[1] = tested on: cyclic AMP dependent protein kinase catalytic subunit; conditions: serine at position 543; alkaline phosphatase restored activity; cited from earlier work
[2] = tested on: catalytic subunit of protein kinase A; conditions: reversed by phosphatase; cited from earlier work
[3] = target: T1, GPR41 (Homo sapiens, UniProt O14843); test: Sodium proprionate CRC with biosensor variants in HEK293 cells stably expressing GPR41; type: cell-based
T1 sequence (O14843 1-346): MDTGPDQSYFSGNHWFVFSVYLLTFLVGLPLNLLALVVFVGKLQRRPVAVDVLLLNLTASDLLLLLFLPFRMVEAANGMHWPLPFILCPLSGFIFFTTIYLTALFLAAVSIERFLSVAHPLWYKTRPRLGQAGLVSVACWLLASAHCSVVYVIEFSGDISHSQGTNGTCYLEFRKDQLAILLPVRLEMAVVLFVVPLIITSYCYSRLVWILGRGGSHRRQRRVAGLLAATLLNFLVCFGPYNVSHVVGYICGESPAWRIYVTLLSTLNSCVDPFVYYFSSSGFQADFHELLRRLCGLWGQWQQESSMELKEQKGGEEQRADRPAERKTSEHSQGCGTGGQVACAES
Outline: (§1)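 GPR41-stable HEK293 cells were transiently transfected with a cAMP biosensor variant, then after 24 h equilibrated 2 h at room temperature with 5 mM EF-luc in CO2-independent medium with 10% FBS. Baseline luminescence was read, a sodium propionate concentration series added, and luminescence read after 30 min. EC50 and fold response were derived, with or without FSK.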

[4] = tested on: GPR41; test: as above; type: cell-based; conditions: ratio of RLU of FSK treated well to untreated well
Outline: as §1

[5] = target: T2, endogenous beta2-adrenergic receptor (Homo sapiens, UniProt P07550); test: Stimulatory response to isoproterenol in HEK293 cells (Gs pathway); type: cell-based; conditions: 10 μM isoproterenol, relative to biosensor with GSSGGSGGSGGG linker
T2 construct: agonist of the endogenous beta2-adrenergic receptor; endogenous in cells; host or cells: HEK293
Source text: (§2) A mutant cAMP biosensor (termed L9; SEQ ID NO: 104; SEQ ID NO: 105) having a mutant RIIβB binding site (substitutions E284A and V316I) and a modified linker sequence (GSIAGCGDAGEG, SEQ ID NO: 57; SEQ ID NO: 128) was screened for increased light output and increased fold response when expressed in mammalian cells (primary sequence Met-(Photinus pyralis luciferase residues 359-544)-(GSIAGCGDAGEG (SEQ ID NO: 57; SEQ ID NO: SEQ ID NO: 128))-(RIIβB E284A, V316I)-(Photinus pyralis luciferase residues 4-355)-Val). For a stimulatory response, transient expression in HEK293 cells was followed by treatment with 10 μM isoproterenol (agonist of the endogenous beta2-adrenergic receptor). For an inhibitory response, transient expression in HEK293 cells that stably express the dopamine D2 receptor was followed by simultaneous treatment with dopamine in the presence or absence of forskolin

[6] = target: T3, dopamine D2 receptor (Homo sapiens, UniProt P14416); test: Inhibitory response to dopamine with or without forskolin in HEK293 cells stably expressing D2 (Gi pathway); type: cell-based; conditions: relative to biosensor with GSSGGSGGSGGG linker
T3 construct: expressed in transfected cells
Source text: as §2

T3 sequence (P14416 whole entry, species assumed): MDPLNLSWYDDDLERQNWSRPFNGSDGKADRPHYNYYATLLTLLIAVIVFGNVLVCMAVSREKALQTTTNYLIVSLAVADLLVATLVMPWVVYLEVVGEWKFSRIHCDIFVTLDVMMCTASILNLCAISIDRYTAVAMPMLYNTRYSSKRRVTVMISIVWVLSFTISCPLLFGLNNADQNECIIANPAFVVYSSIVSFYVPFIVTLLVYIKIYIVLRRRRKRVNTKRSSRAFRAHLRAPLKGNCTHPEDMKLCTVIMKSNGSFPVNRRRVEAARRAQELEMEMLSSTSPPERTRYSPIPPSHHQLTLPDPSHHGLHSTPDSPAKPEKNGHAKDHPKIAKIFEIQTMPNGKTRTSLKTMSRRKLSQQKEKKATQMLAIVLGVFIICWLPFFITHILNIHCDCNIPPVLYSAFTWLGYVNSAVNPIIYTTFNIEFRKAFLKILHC

LRRASLG
reduction of activity on addition of kinase catalytic subunit [1]: 30%

RRFS: Photinus pyralis luciferase with valine 217 mutated to arginine to generate the site RRFS (Sala-Newby et al.)
decrease of activity when phosphorylated [2]: up to 80%

B1: L9: cAMP biosensor, RIIβB E284A and V316I, linker GSIAGCGDAGEG; SEQ ID NO:104, 105 (protein)
chain: MPGAVGKVVPFFEAKVVDLDTGKTLGVNQRGELCVRGPMIMSGYVNNPEATNALIDKDGWLHSGDIAYWDEDEHFFIVDRLKSLIKYKGYQVAPAELESILLQHPNIFDAGVAGLPDDDAGELPAAVVVLEHGKTMTEKEIVDYVASQVTTAKKLRGGVVFVDEVPKGLTGKLDARKIREILIKAKKGSIAGCGDAGEGMYESFIESLPFLKSLEFSARLKVVDVIGTKVYNDGEQIIAQGDSADSFFIIESGEVKITMKRKGKSEVEENGAVEIARCSRGQYFGELALVTNKPRAASAHAIGTVKCLAMDVQAFERLLGPCMEIMKRNIATYEEQLVALFGTNMDIVAKNIKKGPAPFYPLEDGTAGEQLHKAMKRYALVPGTIAFTDAHIEVDITYAEYFEMSVRLAEAMKRYGLNTNHRIVVCSENSLQFFMPVLGALFIGVAVAPANDIYNERELLNSMGISQPTVVFVSKKGLQKILNVQKKLPIIQKIIIMDSKTDYQGFQSMYTFVTSHLPPGFNEYDFVPESFDRDKTIALIMNSSGSTGLPKGVALPHRTACVRFSHARDPIFGNQIIPDTAILSVVPFHHGFGMFTTLGYLICGFRVVLMYRFEEELFLRSLQDYKIQSALLVPTLFSFFAKSTLIDKYDLSNLHEIASGGAPLSKEVGEAVAKRFHLPGIRQGYGLTETTSAILITPEGV
Fold Response Na proprionate + FSK(1 μM) ([3]; with FSK 1 μM): 2.60 fold | Fold Response Na proprionate ([3]; without FSK, ratio of induced to uninduced signal): 2.73 fold | Fold Signal Change [4]: 40.9 fold | fold response to isoproterenol induction of the Gs pathway [5]: improved fold response | fold response for the Gi pathway [6]: improved fold response
